According to patent publication US20050095257A1:

Target: murine CCR6 expressed on HEK293 cells (HEK293/CCR6) (murine) (UniProt O54689)
Assay: cell-based or functional assay

chemotaxis of murine bone marrow derived immature DC, peak activity | Substance
100 ng/mL | mDF3βsFv38, murine β-defensin 3 fusion with sFv38 (from UniProt Q9WTL0 23-63)
10 ng/mL | mDF2βsFv38, murine β-defensin 2 fusion with sFv38 (from UniProt P82020 21-71)
